# According to publication PMC4273445 (eLife, 2014):
# Tests used:
# Experiment in all cases: SPR
# [1] = biological target: fHbp 1.P37 (N. meningitidis) (UniProt E6MV22)
# [2] = biological target: fHbp 1.P4 (N. meningitidis) (UniProt E6MV22)
# [3] = biological target: fHbp 1.P5 (N. meningitidis) (UniProt E6MV22)
# [4] = biological target: fHbp 1.P61 (N. meningitidis) (UniProt E6MV22)
# [5] = biological target: fHbp 1.P74 (N. meningitidis) (UniProt E6MV22)
# [6] = biological target: fHbp 1.P78 (N. meningitidis) (UniProt E6MV22)
# [7] = biological target: fHbp 1.P9 (N. meningitidis) (UniProt E6MV22)
# [8] = biological target: fHbp 2.P16 (N. meningitidis) (UniProt E6MV22)
# [9] = biological target: fHbp 2.P25 (N. meningitidis) (UniProt E6MV22)
# [10] = biological target: fHbp 3.P30 (N. meningitidis) (UniProt E6MV22)
# [11] = biological target: fHbp V1.1 Asn108 to Ala (N. meningitidis)
# [12] = biological target: fHbp V1.1 Glu109 to Ala (N. meningitidis)
# [13] = biological target: fHbp V1.1 His248 to Ala (N. meningitidis)
# [14] = biological target: fHbp V1.1 Ile154 to Ala (N. meningitidis)
# [15] = biological target: fHbp V1.1 Ile179 to Ala (N. meningitidis)
# [16] = biological target: fHbp V1.1 Leu171 to Ala (N. meningitidis)
# [17] = biological target: fHbp V1.1 Leu289 to Ala (N. meningitidis)
# [18] = biological target: fHbp V1.1 Lys264 to Ala (N. meningitidis)
# [19] = biological target: fHbp V1.1 Lys92 to Ala (N. meningitidis)
# [20] = biological target: fHbp V1.1 Ser104 to Ala (N. meningitidis)
# [21] = biological target: fHbp V1.1 Ser302 to Ala (N. meningitidis)
# [22] = biological target: fHbp V1.1 Val149 to Ala (N. meningitidis)
# [23] = biological target: fHbp V2.21 Arg (at V1 Arg106) to Ala (N. meningitidis)
# [24] = biological target: fHbp V2.21 Arg (at V1 Arg145) to Ala (N. meningitidis)
# [25] = biological target: fHbp V2.21 Asn (at V1 Asn108) to Ala (N. meningitidis)
# [26] = biological target: fHbp V2.21 Asn (at V1 Gln180) to Ala (N. meningitidis)
# [27] = biological target: fHbp V2.21 Asp (at V1 Glu183) to Ala (N. meningitidis)
# [28] = biological target: fHbp V2.21 Gln (at V1 Gln103) to Ala (N. meningitidis)
# [29] = biological target: fHbp V2.21 Glu (at V1 Glu283) to Ala (N. meningitidis)
# [30] = biological target: fHbp V2.21 Glu (at V1 Gly267) to Ala (N. meningitidis)
# [31] = biological target: fHbp V2.21 His (at V1 His248) to Ala (N. meningitidis)
# [32] = biological target: fHbp V2.21 Leu (at V1 Ser274) to Ala (N. meningitidis)
# [33] = biological target: fHbp V2.21 Lys (at V1 Lys107) to Ala (N. meningitidis)
# [34] = biological target: fHbp V2.21 Lys (at V1 Lys268) to Ala (N. meningitidis)
# [35] = biological target: fHbp V2.21 Pro (at V1 Ser182) to Ala (N. meningitidis)
# [36] = biological target: fHbp V2.21 Ser (at V1 Gln193) to Ala (N. meningitidis)
# [37] = biological target: fHbp V3.28 Asn (at V1 Gln180) to Ala (N. meningitidis)
# [38] = biological target: fHbp V3.28 Glu (at V1 Glu283) to Ala (N. meningitidis)
# [39] = biological target: fHbp V3.28 Glu (at V1 Gly267) to Ala (N. meningitidis)
# [40] = biological target: fHbp V3.28 His (at V1 His248) to Ala (N. meningitidis)
# [41] = biological target: fHbp V3.28 His (at V1 Ser288) to Ala (N. meningitidis)
# [42] = biological target: fHbp V3.28 Ile (at V1 Ile154) to Ala (N. meningitidis)
# [43] = biological target: fHbp V3.28 Ile (at V1 Ile273) to Ala (N. meningitidis)
# [44] = biological target: fHbp V3.28 Leu (at V1 Leu289) to Ala (N. meningitidis)
# [45] = biological target: fHbp V3.28 Ser (at V1 Ser104) to Ala (N. meningitidis)
# [46] = biological target: fHbp V3.28 Thr (at V1 Glu304) to Ala (N. meningitidis)
# [47] = biological target: fHbp V3.28 Val (at V1 Ile196) to Ala (N. meningitidis)
# [48] = biological target: fHbp V3.28 Val (at V1 Leu171) to Ala (N. meningitidis)
# Chain of CFH67, CCP domains 6 and 7 of complement factor H (P08603 321-443): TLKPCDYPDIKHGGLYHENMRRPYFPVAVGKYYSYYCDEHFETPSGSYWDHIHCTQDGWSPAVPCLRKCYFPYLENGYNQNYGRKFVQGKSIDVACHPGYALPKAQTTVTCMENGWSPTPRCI
substance,measurement,setting,value
"CFHR3_(12), the first two (N-terminal) CCP domains of complement factor H-related 3 (from UniProt Q02985 19-330) (domain or fragment)",Kd,[1],7.52 nM
same,Kd,[2],75 nM
same,Kd,[3],55.2 nM
same,Kd,[4],26.4 nM
same,Kd,[5],56.9 nM
same,Kd,[6],80 nM
same,Kd,[7],41.1 nM
same,Kd,[8],3.74 nM
same,Kd,[9],1.61 nM
same,Kd,[10],2.93 nM
same,Kd,[11],90.7 nM
same,Kd,[12],27.9 nM
same,Kd,[13],82.5 nM
same,Kd,[14],147 nM
same,Kd,[15],1270 nM
same,Kd,[16],724 nM
same,Kd,[17],18.4 nM
same,Kd,[18],589 nM
same,Kd,[19],71.9 nM
same,Kd,[20],382 nM
same,Kd,[21],17.2 nM
same,Kd,[22],6540 nM
same,Kd,[23],5.26 nM
same,Kd,[24],2.88 nM
same,Kd,[25],4.26 nM
same,Kd,[26],5.87 nM
same,Kd,[27],4.45 nM
same,Kd,[28],4.01 nM
same,Kd,[29],22.6 nM
same,Kd,[30],2.13 nM
same,Kd,[31],3.56 nM
same,Kd,[32],17.8 nM
same,Kd,[33],4.47 nM
same,Kd,[34],3.25 nM
same,Kd,[35],5.84 nM
same,Kd,[36],3.38 nM
same,Kd,[37],7.86 nM
same,Kd,[38],20.6 nM
same,Kd,[39],2.57 nM
same,Kd,[40],3.61 nM
same,Kd,[41],9.65 nM
same,Kd,[42],13.7 nM
same,Kd,[43],0.292 nM
same,Kd,[44],1.18 nM
same,Kd,[45],7.19 nM
same,Kd,[46],17.5 nM
same,Kd,[47],14.8 nM
same,Kd,[48],3.81 nM
"CFH67, CCP domains 6 and 7 of complement factor H (from UniProt P08603 321-443) (domain or fragment)",Kd,[1],1.11 nM
same,Kd,[2],3.94 nM
same,Kd,[3],4.8 nM
same,Kd,[4],2.28 nM
same,Kd,[5],5.14 nM
same,Kd,[6],10.5 nM
same,Kd,[7],4.87 nM
same,Kd,[8],3.46 nM
same,Kd,[9],0.346 nM
same,Kd,[10],1.97 nM
same,Kd,[11],3.73 nM
same,Kd,[12],2.93 nM
same,Kd,[13],3.36 nM
same,Kd,[14],7.69 nM
same,Kd,[15],8.06 nM
same,Kd,[16],7.45 nM
same,Kd,[17],1.44 nM
same,Kd,[18],12.3 nM
same,Kd,[19],4.4 nM
same,Kd,[20],9.78 nM
same,Kd,[21],0.592 nM
same,Kd,[22],9.28 nM
same,Kd,[23],5.99 nM
same,Kd,[24],0.408 nM
same,Kd,[25],3.82 nM
same,Kd,[26],6.21 nM
same,Kd,[27],4.29 nM
same,Kd,[28],6.01 nM
same,Kd,[29],197 nM
same,Kd,[30],1.63 nM
same,Kd,[31],1.92 nM
same,Kd,[32],23.9 nM
same,Kd,[33],3.06 nM
same,Kd,[34],3.28 nM
same,Kd,[35],7.98 nM
same,Kd,[36],3.95 nM
same,Kd,[37],8.49 nM
same,Kd,[38],11.9 nM
same,Kd,[39],1.45 nM
same,Kd,[40],2.97 nM
same,Kd,[41],7.66 nM
same,Kd,[42],14.3 nM
same,Kd,[43],0.201 nM
same,Kd,[44],1.29 nM
same,Kd,[45],8.99 nM
same,Kd,[46],11.7 nM
same,Kd,[47],11.6 nM
same,Kd,[48],3.07 nM
